Article doi:10.1101/2023.12.14.571638, “Structural basis of a regulatory switch in mammalian complex I” (bioRxiv, 2023)

B1: NDUFA1 (natural protein, Bos taurus (bovine), UniProt Q02377 1-70, looked up)
chain: MWFEVLPGIAVMGVCLFIPGMATARIHRFSNGGKEKRVAHYPYQWYLMERDRRVSGVNRSYVSKGLENID
notes: NDUFA1, supernumerary subunit of respiratory complex I, Bos taurus; endogenous subunit of the purified enzyme
B2: NDUFA13 (natural protein, Bos taurus (bovine), UniProt Q95KV7 1-144, looked up)
chain: MAASKVKQDMPPVGGYGPIDYKRNLPRRGLSGYSMFAVGIGALLFGYWSMMKWNRERRRLQIEDFEARIALMPLLQAEKDRRVLQMLRENLEEEATVMKDVPGWKVGESVFHTTRWVTPMMGELYGLRASEEVLSATYGFIWYT
notes: NDUFA13, supernumerary subunit of respiratory complex I, Bos taurus
B3: ND6 (natural protein, Bos taurus (bovine), UniProt P03924 1-175, looked up)
chain: MMLYIVFILSVIFVMGFVGFSSKPSPIYGGLGLIVSGGVGCGIVLNFGGSFLGLMVFLIYLGGMMVVFGYTTAMATEQYPEIWLSNKAVLGAFVTGLLMEFFMVYYVLKDKEVEVVFEFNGLGDWVIYDTGDSGFFSEEAMGIAALYSYGTWLVIVTGWSLLIGVVVIMEITRGN
notes: ND6, core membrane subunit of respiratory complex I, Bos taurus; endogenous subunit of the purified enzyme
B4: NDUFA8 (natural protein, Bos taurus (bovine), UniProt P42029 1-172, looked up)
chain: MPGIVELPSLEDLKVQEVKVSSSVLKAAAHHYGAQCDKPNKEFMLCRWEEKDPRRCLEEGKLVNQCALEFFRQIKRHCAEPFTEYWTCIDYSGLQLFRRCRKQQAQFDECVLDKLGWVRPDLGDLSKVTKVKTDRPLPENPYHSRARPEPNPEVEGDLKPARHGSRLFFWTM
notes: NDUFA8, supernumerary subunit of respiratory complex I, Bos taurus; endogenous subunit of the purified enzyme

What follows are binders tested against T1, ND1 (Bos taurus (bovine), UniProt P03887 1-318) (assay: cryo-EM structure; bovine complex I purified in LMNG, reconstituted into proteoliposomes (DOPC:DOPE:cardiolipin 8:1:1, ubiquinone-10; 10 mM MOPS-KOH pH 7.5, 50 mM KCl), on graphene oxide grids; closed, open1 and open2 states, outward- and inward-facing; best map CI-out-closed 2.5 Å). Conditions: both partners purified.
T1 construct: ND1, core membrane subunit of respiratory complex I (NADH:ubiquinone oxidoreductase), Bos taurus; endogenous subunit of the purified enzyme; also called subunit ND1
T1 sequence (P03887 whole entry): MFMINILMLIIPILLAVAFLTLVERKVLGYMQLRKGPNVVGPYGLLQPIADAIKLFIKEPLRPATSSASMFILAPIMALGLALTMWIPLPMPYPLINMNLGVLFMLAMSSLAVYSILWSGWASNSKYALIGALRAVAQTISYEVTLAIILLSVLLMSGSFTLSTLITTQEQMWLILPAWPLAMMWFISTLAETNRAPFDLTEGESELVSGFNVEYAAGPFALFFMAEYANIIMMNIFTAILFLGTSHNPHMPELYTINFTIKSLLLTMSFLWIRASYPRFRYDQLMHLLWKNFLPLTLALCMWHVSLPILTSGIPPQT
B1: binds. B2: binds. B3: binds. B4: binds.
